Patent US20240240141A1, “RAPID AND EFFICIENT CLINICAL GRADE PIGMENT EPITHELIUM INDUCTION METHOD, KIT, AND APPLICATION” (ALLIFE MEDICINE (ZHUHAI) LIMITED, priority 2021, published 2024)

System: iPSCs
Test: qPCR of PAX6 expression in iPSCs cultured in RDM1 with different BMP signaling pathway inhibitors
Format: cell-based
Details: 50 ng/mL noggin in RDM1 culture medium, day 6, Day 0 as control; compared with 2 μM Dorsomorphin or 3 μM LDN-193189 (FIG. 9)
Experimental: 1. Collect 200W cells, adding 1 ml TRIZOL, extracting RNA and determining the RNA concentration. Taking 1 μg RNA and reverse-transcribing it into cDNA. Premixing according to the system as follows in Table 1.
2. Then putting the above system into the Light cycler instrument for reaction according to the 3-step method with a number of cycles of 45. The reaction system is as follows in Table 2:
iPSCs were cultured according to the method of Example 1. 50 ng/mL noggin, 2 μM Dorsomorphin or 3 μM LDN-193189 was added to the RDM1 culture medium as three sets of parallel controls. The expression level of PAX6 in the cells on day 6 was detected.
The results are shown in FIG. 9: Day 0 was used as a control. The expression level of PAX6 was detected after 6 days of cell differentiation.

B1: noggin (protein, UniProt Q13253 28-232, looked up)
Noggin: QHYLHIRPAPSDNLPLVDLIEHPDPIFDPKEKDLNETLLRSLLGGHYDPGFMATSPPEDRPGGGGGAAGGAEDLAELDQLLRQRPSGAMPSEIKGLEFSEGLAQGKKQRLSKKLRRKLQMWLWSQTFCPVLYAWNDLGSRFWPRYVKVGSCFSKRSCSVPEGMVCKPSKSVHLTVLRWRCQRRGGQRCGWIPIQYPIISECKCSC
  expression level of PAX6: the best effect and the highest expression level of PAX6
